{"source": "patent US20240261333A1", "about": "“NOVEL TARGETS FOR ENHANCING ANTI-TUMOR IMMUNITY” (THE BROAD INSTITUTE, INC., priority 2021, published 2024)", "key": {"RPS7 (human)": {"molecular_target": "RPS7 (human) (UniProt P62081)", "experiment": "co-IP/MS, IgG control IP of C-FLAG B3GNT2 cell lysate"}, "RPL12 (human)": {"molecular_target": "RPL12 (human) (UniProt P30050)", "experiment": "co-IP/MS, IgG control IP of C-FLAG B3GNT2 cell lysate"}, "TUBB (human)": {"molecular_target": "TUBB (human) (UniProt P07437)", "experiment": "co-IP/MS, IgG control IP of C-FLAG B3GNT2 cell lysate"}, "CANX (human)": {"molecular_target": "CANX (human) (UniProt P27824)", "experiment": "co-IP/MS, IgG control IP of C-FLAG B3GNT2 cell lysate"}, "RPLPO (human)": {"molecular_target": "RPLPO (human) (UniProt P05388)", "experiment": "co-IP/MS, IgG control IP of C-FLAG B3GNT2 cell lysate"}, "RPS3A (human)": {"molecular_target": "RPS3A (human) (UniProt P61247)", "experiment": "co-IP/MS, IgG control IP of C-FLAG B3GNT2 cell lysate"}, "LRP1 (human)": {"molecular_target": "LRP1 (human) (UniProt Q07954)", "experiment": "co-IP/MS, IgG control IP of C-FLAG B3GNT2 cell lysate"}, "SQSTM1 (human)": {"molecular_target": "SQSTM1 (human) (UniProt Q13501)", "experiment": "co-IP/MS, IgG control IP of C-FLAG B3GNT2 cell lysate"}, "IPO4 (human)": {"molecular_target": "IPO4 (human) (UniProt Q8TEX9)", "sequence (Q8TEX9 whole entry)": "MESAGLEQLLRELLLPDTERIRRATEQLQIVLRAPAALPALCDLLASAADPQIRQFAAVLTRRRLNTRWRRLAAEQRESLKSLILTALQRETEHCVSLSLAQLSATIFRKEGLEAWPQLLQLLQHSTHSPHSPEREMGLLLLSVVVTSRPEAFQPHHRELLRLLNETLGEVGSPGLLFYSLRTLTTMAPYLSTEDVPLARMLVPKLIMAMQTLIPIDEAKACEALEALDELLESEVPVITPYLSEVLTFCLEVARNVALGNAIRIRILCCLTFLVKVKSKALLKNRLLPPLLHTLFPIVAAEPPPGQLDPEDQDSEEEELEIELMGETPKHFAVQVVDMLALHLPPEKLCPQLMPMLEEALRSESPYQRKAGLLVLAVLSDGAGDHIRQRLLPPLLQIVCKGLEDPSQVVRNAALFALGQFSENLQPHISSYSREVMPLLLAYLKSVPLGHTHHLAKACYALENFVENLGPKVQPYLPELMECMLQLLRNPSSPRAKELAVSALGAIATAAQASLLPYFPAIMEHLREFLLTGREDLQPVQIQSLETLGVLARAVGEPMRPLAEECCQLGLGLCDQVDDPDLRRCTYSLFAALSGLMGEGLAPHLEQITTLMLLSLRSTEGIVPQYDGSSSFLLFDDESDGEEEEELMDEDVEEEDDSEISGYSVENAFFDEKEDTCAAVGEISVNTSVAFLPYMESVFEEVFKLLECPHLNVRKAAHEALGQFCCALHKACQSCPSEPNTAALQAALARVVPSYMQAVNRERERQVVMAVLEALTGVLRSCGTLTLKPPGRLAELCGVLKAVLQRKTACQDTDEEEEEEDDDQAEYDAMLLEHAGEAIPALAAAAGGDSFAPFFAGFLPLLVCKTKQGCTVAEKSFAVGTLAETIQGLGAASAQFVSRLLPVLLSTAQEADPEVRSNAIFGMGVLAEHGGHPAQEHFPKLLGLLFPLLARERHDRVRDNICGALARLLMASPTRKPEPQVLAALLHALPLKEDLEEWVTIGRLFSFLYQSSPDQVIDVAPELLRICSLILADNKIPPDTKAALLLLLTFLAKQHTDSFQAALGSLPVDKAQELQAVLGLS", "experiment": "co-IP/MS, IgG control IP of C-FLAG B3GNT2 cell lysate"}, "ERLIN1 (human)": {"molecular_target": "ERLIN1 (human) (UniProt O75477)", "sequence (O75477 whole entry)": "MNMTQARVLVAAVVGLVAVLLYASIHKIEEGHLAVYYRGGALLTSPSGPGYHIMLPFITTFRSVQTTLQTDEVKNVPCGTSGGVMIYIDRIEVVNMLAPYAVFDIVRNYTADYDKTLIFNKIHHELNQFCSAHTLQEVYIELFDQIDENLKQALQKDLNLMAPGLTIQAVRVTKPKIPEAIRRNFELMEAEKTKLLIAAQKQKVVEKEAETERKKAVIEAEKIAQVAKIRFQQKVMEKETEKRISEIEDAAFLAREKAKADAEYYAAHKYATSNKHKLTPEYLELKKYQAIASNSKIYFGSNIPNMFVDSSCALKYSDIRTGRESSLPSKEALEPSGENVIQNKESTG", "experiment": "co-IP/MS, IgG control IP of C-FLAG B3GNT2 cell lysate"}, "ATP1A1 (human)": {"molecular_target": "ATP1A1 (human) (UniProt P05023)", "experiment": "co-IP/MS, IgG control IP of C-FLAG B3GNT2 cell lysate"}, "PRDX1 (human)": {"molecular_target": "PRDX1 (human) (UniProt Q06830)", "sequence (Q06830 2-199 limits assumed)": "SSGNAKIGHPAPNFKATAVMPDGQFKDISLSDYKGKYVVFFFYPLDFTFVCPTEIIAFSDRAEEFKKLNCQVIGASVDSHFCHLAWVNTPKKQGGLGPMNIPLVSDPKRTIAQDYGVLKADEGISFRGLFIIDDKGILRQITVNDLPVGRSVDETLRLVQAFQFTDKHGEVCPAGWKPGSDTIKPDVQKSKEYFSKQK", "experiment": "co-IP/MS, IgG control IP of C-FLAG B3GNT2 cell lysate"}, "CAPZA1 (human)": {"molecular_target": "CAPZA1 (human) (UniProt P52907)", "experiment": "co-IP/MS, IgG control IP of C-FLAG B3GNT2 cell lysate"}, "CASP14 (human)": {"molecular_target": "CASP14 (human) (UniProt P31944)", "sequence (P31944 whole entry)": "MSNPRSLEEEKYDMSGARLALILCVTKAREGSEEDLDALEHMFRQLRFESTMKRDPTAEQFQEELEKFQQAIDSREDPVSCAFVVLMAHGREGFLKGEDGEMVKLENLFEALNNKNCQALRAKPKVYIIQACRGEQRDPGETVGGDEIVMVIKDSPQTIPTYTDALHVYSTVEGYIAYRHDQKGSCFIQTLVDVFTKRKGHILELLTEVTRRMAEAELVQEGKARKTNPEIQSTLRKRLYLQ", "experiment": "co-IP/MS, IgG control IP of C-FLAG B3GNT2 cell lysate"}, "RPL30 (human)": {"molecular_target": "RPL30 (human) (UniProt P62888)", "experiment": "co-IP/MS, IgG control IP of C-FLAG B3GNT2 cell lysate"}, "PCBP1 (human)": {"molecular_target": "PCBP1 (human) (UniProt Q15365)", "sequence (Q15365 whole entry)": "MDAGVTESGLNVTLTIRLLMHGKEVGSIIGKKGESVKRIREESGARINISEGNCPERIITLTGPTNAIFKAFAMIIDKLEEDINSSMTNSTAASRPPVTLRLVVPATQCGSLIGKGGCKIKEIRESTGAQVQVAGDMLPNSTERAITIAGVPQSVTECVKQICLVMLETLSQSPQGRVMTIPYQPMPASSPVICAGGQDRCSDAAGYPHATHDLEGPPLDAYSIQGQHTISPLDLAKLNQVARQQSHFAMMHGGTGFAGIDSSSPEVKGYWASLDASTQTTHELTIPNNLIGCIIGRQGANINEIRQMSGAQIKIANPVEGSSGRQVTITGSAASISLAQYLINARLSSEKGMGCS", "experiment": "co-IP/MS, IgG control IP of C-FLAG B3GNT2 cell lysate"}, "DNAJA1 (human)": {"molecular_target": "DNAJA1 (human) (UniProt P31689)", "experiment": "co-IP/MS, IgG control IP of C-FLAG B3GNT2 cell lysate"}, "RPL23A (human)": {"molecular_target": "RPL23A (human) (UniProt P62750)", "experiment": "co-IP/MS, IgG control IP of C-FLAG B3GNT2 cell lysate"}, "RPS9 (human)": {"molecular_target": "RPS9 (human) (UniProt P46781)", "experiment": "co-IP/MS, IgG control IP of C-FLAG B3GNT2 cell lysate"}, "CAPZB (human)": {"molecular_target": "CAPZB (human) (UniProt P47756)", "experiment": "co-IP/MS, IgG control IP of C-FLAG B3GNT2 cell lysate"}, "PIP (human)": {"molecular_target": "PIP (human) (UniProt P12273)", "sequence (P12273 29-146 limits assumed)": "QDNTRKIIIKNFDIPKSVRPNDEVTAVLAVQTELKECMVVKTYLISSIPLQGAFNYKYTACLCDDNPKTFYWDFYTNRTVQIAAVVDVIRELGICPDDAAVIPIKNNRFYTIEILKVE", "experiment": "co-IP/MS, IgG control IP of C-FLAG B3GNT2 cell lysate"}, "FAM3C (human)": {"molecular_target": "FAM3C (human) (UniProt Q92520)", "sequence (Q92520 25-227 limits assumed)": "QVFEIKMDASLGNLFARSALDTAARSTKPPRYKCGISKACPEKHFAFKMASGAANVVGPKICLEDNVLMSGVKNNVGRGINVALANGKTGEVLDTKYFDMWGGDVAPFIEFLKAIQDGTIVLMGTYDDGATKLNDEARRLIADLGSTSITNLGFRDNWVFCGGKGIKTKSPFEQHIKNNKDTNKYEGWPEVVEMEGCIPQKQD", "experiment": "co-IP/MS, IgG control IP of C-FLAG B3GNT2 cell lysate"}, "SLC25A4 (human)": {"molecular_target": "SLC25A4 (human) (UniProt P12235)", "sequence (P12235 2-298 limits assumed)": "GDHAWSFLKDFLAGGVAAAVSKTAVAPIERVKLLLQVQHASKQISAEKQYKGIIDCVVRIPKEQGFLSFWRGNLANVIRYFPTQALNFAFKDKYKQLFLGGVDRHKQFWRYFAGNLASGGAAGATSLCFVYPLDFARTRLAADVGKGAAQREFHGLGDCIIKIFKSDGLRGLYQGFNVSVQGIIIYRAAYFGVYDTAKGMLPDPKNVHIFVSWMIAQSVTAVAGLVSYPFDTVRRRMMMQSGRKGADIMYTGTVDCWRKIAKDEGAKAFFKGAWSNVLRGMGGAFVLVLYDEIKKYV", "experiment": "co-IP/MS, IgG control IP of C-FLAG B3GNT2 cell lysate"}, "RPL27A": {"molecular_target": "RPL27A (UniProt P46776)", "experiment": "co-IP, anti-FLAG, N-FLAG B3GNT2 cell lysate, mass spectrometry"}, "MTCH2": {"molecular_target": "MTCH2 (UniProt Q9Y6C9)", "experiment": "co-IP, anti-FLAG, N-FLAG B3GNT2 cell lysate, mass spectrometry"}, "EMD": {"molecular_target": "EMD (UniProt P50402)", "sequence (P50402 whole entry)": "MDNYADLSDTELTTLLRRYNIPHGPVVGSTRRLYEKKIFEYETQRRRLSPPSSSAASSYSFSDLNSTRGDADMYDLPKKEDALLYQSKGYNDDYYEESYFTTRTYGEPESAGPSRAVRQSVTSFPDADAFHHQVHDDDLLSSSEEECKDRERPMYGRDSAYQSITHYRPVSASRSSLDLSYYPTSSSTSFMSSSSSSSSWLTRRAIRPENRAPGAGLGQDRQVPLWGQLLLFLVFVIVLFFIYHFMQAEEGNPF", "experiment": "co-IP, anti-FLAG, N-FLAG B3GNT2 cell lysate, mass spectrometry"}, "RPL19": {"molecular_target": "RPL19 (UniProt P84098)", "experiment": "co-IP, anti-FLAG, N-FLAG B3GNT2 cell lysate, mass spectrometry"}, "RPL3": {"molecular_target": "RPL3 (UniProt P39023)", "experiment": "co-IP, anti-FLAG, N-FLAG B3GNT2 cell lysate, mass spectrometry"}, "ITGB3": {"molecular_target": "ITGB3 (UniProt P05106)", "sequence (P05106 27-788 limits assumed)": "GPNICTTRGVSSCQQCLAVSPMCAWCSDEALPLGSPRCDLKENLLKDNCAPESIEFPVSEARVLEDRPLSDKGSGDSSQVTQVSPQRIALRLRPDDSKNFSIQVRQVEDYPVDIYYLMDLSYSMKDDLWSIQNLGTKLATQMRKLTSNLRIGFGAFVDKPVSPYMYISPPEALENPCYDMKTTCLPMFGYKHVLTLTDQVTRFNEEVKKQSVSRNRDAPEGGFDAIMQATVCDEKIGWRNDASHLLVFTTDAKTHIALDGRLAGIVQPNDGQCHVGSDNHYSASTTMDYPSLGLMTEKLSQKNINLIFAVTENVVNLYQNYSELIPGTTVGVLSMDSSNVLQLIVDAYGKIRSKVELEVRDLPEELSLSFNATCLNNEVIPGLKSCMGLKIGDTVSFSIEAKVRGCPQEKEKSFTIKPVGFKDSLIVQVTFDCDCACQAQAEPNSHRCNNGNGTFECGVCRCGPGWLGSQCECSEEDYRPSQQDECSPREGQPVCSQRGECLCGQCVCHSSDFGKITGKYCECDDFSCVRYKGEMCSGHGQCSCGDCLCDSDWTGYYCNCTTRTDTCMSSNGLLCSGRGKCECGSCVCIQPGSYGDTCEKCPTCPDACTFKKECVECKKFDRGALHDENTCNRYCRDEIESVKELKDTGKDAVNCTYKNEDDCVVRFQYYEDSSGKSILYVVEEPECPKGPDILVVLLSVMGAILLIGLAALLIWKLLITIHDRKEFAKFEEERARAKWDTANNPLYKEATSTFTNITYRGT", "experiment": "co-IP, anti-FLAG, N-FLAG B3GNT2 cell lysate, mass spectrometry"}, "DNAJA2": {"molecular_target": "DNAJA2 (UniProt O60884)", "experiment": "co-IP, anti-FLAG, N-FLAG B3GNT2 cell lysate, mass spectrometry"}, "PSMA7": {"molecular_target": "PSMA7 (UniProt O14818)", "experiment": "co-IP, anti-FLAG, N-FLAG B3GNT2 cell lysate, mass spectrometry"}, "MTDH": {"molecular_target": "MTDH (UniProt Q86UE4)", "experiment": "co-IP, anti-FLAG, N-FLAG B3GNT2 cell lysate, mass spectrometry"}, "RPL35": {"molecular_target": "RPL35 (UniProt P42766)", "experiment": "co-IP, anti-FLAG, N-FLAG B3GNT2 cell lysate, mass spectrometry"}, "CDSN": {"molecular_target": "CDSN (UniProt Q15517)", "experiment": "co-IP, anti-FLAG, N-FLAG B3GNT2 cell lysate, mass spectrometry"}, "HIST1H1E": {"molecular_target": "HIST1H1E (UniProt P10412)", "experiment": "co-IP, anti-FLAG, N-FLAG B3GNT2 cell lysate, mass spectrometry"}, "PBXIP1": {"molecular_target": "PBXIP1 (UniProt Q96AQ6)", "experiment": "co-IP, anti-FLAG, N-FLAG B3GNT2 cell lysate, mass spectrometry"}, "TAGLN": {"molecular_target": "TAGLN (UniProt Q01995)", "experiment": "co-IP, anti-FLAG, N-FLAG B3GNT2 cell lysate, mass spectrometry"}, "POF1B": {"molecular_target": "POF1B (UniProt Q8WVV4)", "sequence (Q8WVV4 other isoform, or with tags, fused parts or gaps limits assumed)": "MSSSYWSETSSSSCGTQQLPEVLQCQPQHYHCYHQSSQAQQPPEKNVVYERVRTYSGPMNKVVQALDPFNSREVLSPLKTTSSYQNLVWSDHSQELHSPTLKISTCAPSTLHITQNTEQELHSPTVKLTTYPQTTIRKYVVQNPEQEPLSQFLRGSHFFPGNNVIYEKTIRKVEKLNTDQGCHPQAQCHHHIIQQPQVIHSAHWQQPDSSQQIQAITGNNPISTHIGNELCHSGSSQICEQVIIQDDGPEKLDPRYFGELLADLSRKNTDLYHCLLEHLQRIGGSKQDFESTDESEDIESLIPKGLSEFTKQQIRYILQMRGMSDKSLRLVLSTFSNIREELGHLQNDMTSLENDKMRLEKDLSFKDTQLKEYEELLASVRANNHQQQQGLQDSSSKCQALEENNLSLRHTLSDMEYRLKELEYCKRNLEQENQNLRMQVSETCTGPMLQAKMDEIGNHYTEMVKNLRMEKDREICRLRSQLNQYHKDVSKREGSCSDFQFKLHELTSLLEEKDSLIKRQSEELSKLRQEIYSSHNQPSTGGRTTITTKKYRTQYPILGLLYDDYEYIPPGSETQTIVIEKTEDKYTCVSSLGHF", "experiment": "co-IP, anti-FLAG, N-FLAG B3GNT2 cell lysate, mass spectrometry"}, "TMEM59": {"molecular_target": "TMEM59 (UniProt Q9BXS4)", "sequence (Q9BXS4 36-323 limits assumed)": "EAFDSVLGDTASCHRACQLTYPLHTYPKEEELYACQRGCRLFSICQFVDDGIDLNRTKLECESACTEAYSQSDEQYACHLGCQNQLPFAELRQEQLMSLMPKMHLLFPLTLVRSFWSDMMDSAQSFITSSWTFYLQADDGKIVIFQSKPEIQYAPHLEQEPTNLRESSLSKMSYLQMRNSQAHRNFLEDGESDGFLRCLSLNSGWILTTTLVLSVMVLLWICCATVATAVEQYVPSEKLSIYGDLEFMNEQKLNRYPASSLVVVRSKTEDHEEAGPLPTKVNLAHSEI", "experiment": "co-IP, anti-FLAG, N-FLAG B3GNT2 cell lysate, mass spectrometry"}}}
{"substance": "IgG control (Millipore Sigma 12-371) (antibody)", "values": [{"measurement": "co-IP mass spectrometry count", "setting": "RPS7 (human)", "value": 5}, {"measurement": "co-IP mass spectrometry count", "setting": "RPL12 (human)", "value": 5}, {"measurement": "co-IP mass spectrometry count", "setting": "TUBB (human)", "value": 10}, {"measurement": "co-IP mass spectrometry count", "setting": "CANX (human)", "value": 0}, {"measurement": "co-IP mass spectrometry count", "setting": "RPLPO (human)", "value": 0}, {"measurement": "co-IP mass spectrometry count", "setting": "RPS3A (human)", "value": 10}, {"measurement": "co-IP mass spectrometry count", "setting": "LRP1 (human)", "value": 0}, {"measurement": "co-IP mass spectrometry count", "setting": "SQSTM1 (human)", "value": 3}, {"measurement": "co-IP mass spectrometry count", "setting": "IPO4 (human)", "value": 0}, {"measurement": "co-IP mass spectrometry count", "setting": "ERLIN1 (human)", "value": 0}, {"measurement": "co-IP mass spectrometry count", "setting": "ATP1A1 (human)", "value": 0}, {"measurement": "co-IP mass spectrometry count", "setting": "PRDX1 (human)", "value": 0}, {"measurement": "co-IP mass spectrometry count", "setting": "CAPZA1 (human)", "value": 0}, {"measurement": "co-IP mass spectrometry count", "setting": "CASP14 (human)", "value": 4}, {"measurement": "co-IP mass spectrometry count", "setting": "RPL30 (human)", "value": 4}, {"measurement": "co-IP mass spectrometry count", "setting": "PCBP1 (human)", "value": 3}, {"measurement": "co-IP mass spectrometry count", "setting": "DNAJA1 (human)", "value": 0}, {"measurement": "co-IP mass spectrometry count", "setting": "RPL23A (human)", "value": 4}, {"measurement": "co-IP mass spectrometry count", "setting": "RPS9 (human)", "value": 0}, {"measurement": "co-IP mass spectrometry count", "setting": "CAPZB (human)", "value": 0}, {"measurement": "co-IP mass spectrometry count", "setting": "PIP (human)", "value": 2}, {"measurement": "co-IP mass spectrometry count", "setting": "FAM3C (human)", "value": 0}, {"measurement": "co-IP mass spectrometry count", "setting": "SLC25A4 (human)", "value": 0}]}
{"substance": "N-terminal FLAG tagged B3GNT2 (from UniProt Q9NY97 1-397) (enzyme)", "values": [{"measurement": "co-IP mass spectrometry count", "setting": "RPL27A", "value": 7}, {"measurement": "co-IP mass spectrometry count", "setting": "MTCH2", "value": 4}, {"measurement": "co-IP mass spectrometry count", "setting": "EMD", "value": 2}, {"measurement": "co-IP mass spectrometry count", "setting": "RPL19", "value": 8}, {"measurement": "co-IP mass spectrometry count", "setting": "RPL3", "value": 8}, {"measurement": "co-IP mass spectrometry count", "setting": "ITGB3", "value": 3}, {"measurement": "co-IP mass spectrometry count", "setting": "DNAJA2", "value": 3}, {"measurement": "co-IP mass spectrometry count", "setting": "PSMA7", "value": 4}, {"measurement": "co-IP mass spectrometry count", "setting": "MTDH", "value": 0}, {"measurement": "co-IP mass spectrometry count", "setting": "RPL35", "value": 7}, {"measurement": "co-IP mass spectrometry count", "setting": "CDSN", "value": 5}, {"measurement": "co-IP mass spectrometry count", "setting": "HIST1H1E", "value": 6}, {"measurement": "co-IP mass spectrometry count", "setting": "PBXIP1", "value": 2}, {"measurement": "co-IP mass spectrometry count", "setting": "TAGLN", "value": 2}, {"measurement": "co-IP mass spectrometry count", "setting": "POF1B", "value": 5}, {"measurement": "co-IP mass spectrometry count", "setting": "TMEM59", "value": 6}]}
